# Laboratory results as given in the nanobody polyreactivity screen of Harvey et al. (2022).
# Test: yeast display, Sf9 membrane polyspecificity reagent, FACS + sequencing; frameworks hold sequencing errors
# Outline: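 A synthetic nanobody library was expressed on Saccharomyces cerevisiae BJ5465 by galactose induction for 36–48 hours. The library was stained for 1 hour at 4 °C with 10% biotinylated, detergent-solubilized Sf9 membrane reagent and enriched with streptavidin microbeads before FACS. Low and high (top ~1%) gates were set on anti-HA fluorescence for expression and streptavidin fluorescence for reagent binding, and each polyreactivity label reflects the gate of origin.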
row,Sequence,polyreactivity (PSR sort gate)
1,QVQLVESGGGLVQAGGSLRLSCAASGFIIDVYAMGWYRHAPGKERELVAAISRSGGSTYYADSVKGRFTISRDNAKNSVYLQMNSLKPEDTAVYYCNAPGVTRAYLVGYDYWGQGSQVTVSS,low polyreactivity
2,QVQLVESGGGLVQAGGSLRLSCAASGFIFGSYTMGWYRQAPGKERELVAAISSSVGRTYYADSVKGRFTISRDNAKNTVYLQMNSLKPEDTAVYYCAARRHGRVDYSQGSRESDYWGQGTQVTVSS,high polyreactivity
3,QVQLVDSAGCLVQAGGSLRLSCAASGRIFVYYVMGWYRQAPGKERELVASITFRGSRTYYADSVKGRFTISRDYAKNTVYLQMISLKPEDTAVYYCNADVWASGSRGDGYWGQGTQVTVAS,low polyreactivity
4,QVQLVESGGGLVQAGGSLRLSCAASGSIFITYAMGWYRQAPGKERELVAAIRDSGDRTYYADSVKGRFTISRDNAKNTVYLQMNSLKPEDTAVYYCAKRAWGSPYGYWGQGTQVTVSS,low polyreactivity
5,QVQLQESGGGLVQEGGSLRLSCAESGNISPQADMGWYRQAPGKERELVASIGTGGTTNYADSVTGRFTISRDNAKNTVYLQMNSLKPDDTAFYYCAAVRYEYNPYDYWGQGTQVTVSS,low polyreactivity
6,QVQLVESGGGLVQAGGSLRLSCAASGSIFVRNAMGWYRQAPGKERELVAAISWRGGSTYYADSVKGRFTISRDNAKNTVYLQMNSLKPEDTAGYYCAARRWSPRSGLGYGYWGQGTQVTVSS,high polyreactivity
7,QVQLVESGGGLVQAGGSLRLSCAASGSIFSGNTMGWYRQAPGKERELVAAISKSGGSTYYADSVKGRFTISRDNAKNTVYLQINSLKPEDTAVYYCAVRIRSRVANPGYRWGFNYWGQGTQVTVSS,high polyreactivity
8,QVQLVESGGGLVQAGGSLRLSCAASGSTFNIYVMGWYRQAPGKERELVADITTSGRTYYADSVKGRFTISRDNAKNTVYVQMNSLKPEDTAVYYCADATGTYGRGGYYWGQGTQLTVSS,high polyreactivity
9,QVQLVESGGGLVQEGGSLLLSFAASGSTFGYYAMGWYRQAPGKEREFVAAISDSGDGTYYADSVKGRFTISRDNEKNTVYLQMNSLKQEDTAVYYCAAEAPYYFGWWYGYKYDSWGQGTQVTVSW,high polyreactivity
10,QDQLEESGGGLVQAGGSLRLSCAASGRNFYGYVMGWYRQAPGKERELVAAISSGGSTYYADSVKGRFTISRDNAKNTVYLQMNSLKPEDTAVYYCNADWKSYRGPKFDYWGQGTQVTVSS,low polyreactivity
11,QVQLVESVGGLVQAGGSLRLSCASSGITFWYYAMGWYRQAPGKERELVAAISYSGDSTYYADSVKGRFTISRDNAKNTVYLQMNSLKPEDTAVYYCAARTRAGAWTSKYHDYWGQGTQGTVSS,high polyreactivity
12,QVQLVESGGGLVQAGGSLRLSCAASGRTFRYYAMGWYRQAPGKERELVAAISSGGSTNYADSVKGRFTISRDNAKITVYLQMNSLKPEDTAVYYCAALWSGNKFNYWGQGTQVTVSS,low polyreactivity
13,QVQLVESGGGLVQAGGSLRLSCAASGFTFSHNAMGWSRQAPGKERELVAGINGSGGSTYYADSVKGRFTISRDNAKNTFYLQMNSLKPEDTAVYYCSKDGSNRLALPAWDYNYWGQGTQVTVSS,low polyreactivity
14,QVQLVESGGGLVQAGGSIRLSCAASGSIFYYGLGWYRQAPGKERELVAAITRGGSTYYADSVKGRFTISRDNAKNTVYLQMNSLKPEDTAVYYCAKYPVGGYDYWGQGTQVTVSS,low polyreactivity
15,QVQLVESVGGLVQAGGSLRLICAASGSIFSPYAMGWYRQAPGKERELVAAINFNGGTTYYADSVKGRFTISRDNAKNTVDLQMNSLKPEDTAVYYCAADEVPGFGYPPYPWFDYWGQGTQVTVSS,low polyreactivity
16,QVQLVESGGGLVQAGGSLRLSCAASGRIFSHNAMGWYRQAPGKERELVAAITGSGGTTYYADSVKGRFKISRDNAKNTVYLQMNSLKPEDTAVYYCAADWQQLSYVWRSQRRYNYWGQGTQVTVSS,low polyreactivity
17,QVQLVESGGGLVQAGGSLRLSCAASGSIFFEYAMGWYRQAPGKERELVASINRGGGSTYYADSVKGRFTISRDNAKNTVYLQMNSLIPEDTAVYYCAAQCKYRQSYLDYYWGQGTQVTVSS,low polyreactivity
18,QVQLVESGGGLVQAGGSLRLSCAASGRIFPYYAMGWYRQAPGKDRELVAAISWSGGRTYYADSVKGRFTISRDYAKNTVYLQMNSLKPDDNAVYFCAAGHSYRPYYYYGEYDYWGQGTQVTVSS,high polyreactivity
19,QVQLQESGGGLVQAGGCLRLSCAASGTIFDPDYMVWYHQAPGKERELVASISLGRMTYYADSVKGRFTINRDNAKNTVYVQMNTLKPEDTAVYYCAVRVETIYYYSYWGQGTQVTVSS,high polyreactivity
20,QVQLVESGGGLVQAGGSLRLICAASGSIFRFYAMGWYRQAPGTERELVAAISKTGGRTYYADSVKGRFTISRDNAKNTFYLQMNSLKPEDTAVYYCAASIREGFYWGQGTQVTVSS,high polyreactivity
21,QVQLVESGGGLVQAGGSLRLSCAASGSIFLTYAMGWYRQAPGKESELVAAISSGDSTNYTDSVKGRFTISRDNAKNTVYLQMNSLKPEDTAVYYCAADLTYTMDHWGQGTQVTVSS,low polyreactivity
22,QVQLVESVGGLVQAGGSLRLSCAASGSIFTWYAMGWYRQAPRKERELVAAITRGGSTYADSVKGRFTISRDNAKNTVYLQMNSLKPEDTAVYYCNAVYGVYDFNYWGQGTQVTVSS,low polyreactivity

row,Sequence,polyreactivity (PSR sort gate)
1,QVQLVESGGGLVQAGCSLRLSWAASGFTFTYYAMGWYRQEPGKERELVAAISDGGASTYYSDSVKGRFTISRDNAKNTVYLQMNSLKPEDTAVYYCAAETYWPWKDDYWGQGTQVTVSS,high polyreactivity
2,QVQLVESGGGLVQAGGSLRLSCAASGSIFNRYAMGWYRQAPGKERELVAAIRSGDNTNYADSVKGRFTISRDNAKNTVYLQMNSLKPEDTAVYYCAKRTYYRSRTVGWGKMDYWGQGTQVTVSS,high polyreactivity
3,QVQLVESGGGLVQAGGSLRLSCAASGRTFAGYTMGWYRQAPGKERELVAAITKSGGSTYYADSVKGRFTISRDNEKNTVYLQMNSLKPEDTAVYYCAARYIPSRYGTGCGYYSWGQGTQVTVSS,high polyreactivity
4,QVQLVESGGGLVQAGGSLRLSCAASGSIFRPNAMGWYRQAPGKERELVAAINTSDDSTYYADSVKGRFTISRDNAKNTVYLQMNSLKPEDTAVYYCASDGVVPGRFFWPAHEYDYWGQGTQVTVSS,low polyreactivity
5,QVQLVESGGGLVQAGGSLRLSCAASGSTFPYYAMGWYRQAPGKERELVAAISQNGGSTYYADSVKGRFTISRDNAKNTVYLQMNSLKPEDTAVYYCNADGVGGEYRLSGYDYWGQGTQVTVSS,low polyreactivity
6,QDQLVESGVGIVQAGRSLRLSCAASGFTFSGYAMGWDRQAPGKERELVAAINWRGDSTYYADSVKGRFTISRDNAKNTVYLQMNSLKPEDTAVYYCNVVLGPQRYSTDYGYWGQGTQVTVSS,high polyreactivity
7,QVQLVESGGGLVQAGGSLRLSCAASGRIFTYNAMGGYRQAPGKESEFVAAISSGGSTTYADSVKGRFTISRDNAKNTVYLQMISLKPEDTAVYYCAARGWRFAIIQYEYWGQGTQVTVSS,low polyreactivity
8,QVHLEESGGGLVQAGGSLRLTCAASGFTFQLYAMGWYRQPPGKERELVAAINYRGSSTYYADSVKGRFTISRDNAKNTVYLQMNSLKPEDTAVYYCNAAQYYERFNHWGQGTQVTVSS,high polyreactivity
9,QVQLVESGVGLVQAGGSLRLSCAASGSIFYQNAMGWYRQAPGKEREFVAAITWIGGSTYYADSVKGRFTISRDNAKNTVYLQMNSLKPEDTAVYYCARRLLRGSDWGQGTQVTVSS,high polyreactivity
10,QVQLVESGGGLVQAGGSLRLSCAASGFIFSGYAMGWYRQAPGKERELVAAITSSGGNTYYADSVKGRFTISRDNAKNTVYLQMNSLKAEDTAVYYCARYSIFRWTRDEYWGQGTQVTVSS,high polyreactivity
11,QVQLVESGGGIVQAGGSLRLSCAASGFTFGLYAMGWYRQAPGKERELVAVISSSGGSTYYADSVKGRFTISRDNAKNTVYLQMNSLKPEDTAVYYCAAEWHDYKFDVTYDYWGQVTQVTVSS,low polyreactivity
12,QVQLVESGGGLVQAGGSLRLSCAASGSIFRGYAMGWYRQAPGKERELVAGIRGSDGSTYYADSVKGRFTISRDNAKNTVYLQMNSLKPEDTAVYYCAADRRYLDRDKHRYGYWGQGTQVTVSS,low polyreactivity
13,QVQLVESGGGLVQAGGSLRLSCAASGLIFYDNMGWYRQAPGNERELVAAITVSGGATYYADSVKGRFTISRDNAKNTVYLQMNSLKPEDTAVYYCARELLSPTYQRWYYYWGQGTQVTVSS,low polyreactivity
14,QVQLVESGGGLVQAGGSLRLSCAASGSTFYRNAMGWYIQAPGKEREFVAAISYSGGGTYYADSVKGRFTISRDNAKNTVYLQMNSLKPEETAVYYCAADVSGWEYDYWGQVTQVTVSS,low polyreactivity
15,QVQLVESGGGLVQAGGSLRLSCASSGRIFGIYAMGWYRQAPGKESELVARITGGGSTNYADSVKGRFTISRDNAKNTVYLQMNSLKPEDTAVYYCAATVRRIVGNITRYDYWGQGTQVTVSS,low polyreactivity
16,QFQLVESGGGLVQAGGSLRLSCASSGSIFYGNAMVCYRQAPGKERELVADIRWSGGSTYYADSVKGRFTISRDNAKNTVYLQMNSLKPEDTAVYYCAVRSPYRWRYASRYHEYDYWGQGTQVTVSS,low polyreactivity
17,QVQLVESGGGLVQAGGSLRLSCAASGTTFDYYAMGWYRQAPGKERELVAVISSSGGSTYYADSVKGRFTISRDNAKNTVYLQMNSLKPEDTAVYYCAALYRNYGSSYAYYYWGQGTQVTVSS,low polyreactivity
18,QVQLVESGGGLVQAGGSLRLSCDASGSIFYGYTMGWYRQDPGKERELVAAIRKSGGSTNYADSVKGRFTISRDNAKNTVYLQMNSLKPEDTAVYYCAASYYRGRGYYWGQGTQVTVSS,high polyreactivity
19,QVQLVETGGGLVQAGGSLRLSCAASGSTFGWNAMGWYRQAPGKERELVAAITGGGSTYYADSVKGRFTISRDNAKNTVYLQMNSLKPEDTAVYYCEGDYWGQGTQVTVSS,low polyreactivity
20,QVQLVESGGGLVQAGGSLRLSCAASGFTFWRYAMGWSRQATGKERELVAVITWSGTRTYYADSVKGRFTISRDNAKNTVYLQMNSLKPEDTAVYYCAAYITDVAGRAYDYWGQGTQVTVSS,high polyreactivity
21,QVQLVESGGGLVQAGGSLRLSCAASGSIIFGYGMGWYRQAPGKERELVATITTSGGTYYADSVKGRFTISRDNAKNSVYLQMNSLKPEDTAVYYCAATAAALDGNTIMYYWGQGTQVTVSS,low polyreactivity
